Assay results: the DeepSol protein solubility set

Test: soluble on expression in E. coli; label from the status in PepcDB or PDB records

| Sequence | soluble on expression in E. coli |
| --- | --- |
| MAEEAVDARGEGARFIEKVKSICGNTSRILYKYDEPTDPRYGYLPHERPLDVYLRYGMIVVDKPPGPTSHEVVAWIKRMLGVSRAGHGGTLEPLPAPRGLRGGDILK | soluble |
| MSLITDGIMHKVREVYQLLRKEPGIIVGVSNRHVHLSREDLETLFGEGYELTPVKELRQPGQYAAKETVTIVGPKGAIENVRVLGPVRKETQVEISRTDAFRLGVRPPVRDSGDLEGTPGIVIIGPNGILVKEKGVIIAKRHIHMHPKDAEYYGVKDKDIVKVIVESGDRRLIFDDVLIRVREDFALEFHVDTDEANAAMLNTGDLVYIVEFEGGSHHHHHH | soluble |
| YEKYRWSISRSGYLIILGRDASQNESIVKKYLRDKDIFLHADIIGAPATIIITQDNKTISEEDIYDAAVMAASYSKAWKVGLASVDIFWVLGNQVSKSPPSGEYLNK | not soluble |
| SATQIPSTISILATSDIHGNVLNYDYATGKAPTNTQGLAKVSSYVNSVRASKPNVMLIDDGDTIQGTPLSYYYDKIDTTSEYPLMKIMGAMKYDTWTLGNHEFNYGLPTLNRVISDARKENINVLSANTYNSDNTNFVNPYYIKTFNINGKTVNVGILGLTTKCIPDWEDPSHYAGLHFNDLVDEAKLWVPRMKAAGANVVIVAAHSGEEGAADTIPENQIKAIATNVSGIDAIVAGHAHVTVNDTSLKNPNGKTVPVVEPNKWGTFVSQIDITLDNSGNASTINTQNVKMTDSIPEDPNIVNIIQPYQNKTLDYIST | not soluble |
| MSLELKYKIGFPSLYYPKISLADRIDAAAEKFGEKTAIISAEPKFPSEFPESMNFLEICEVTKKLASGISRKGVRKGEHVGVCIPNSIDYVMTIYALWRVAATPVPINPMYKSFELEHILNDSEATTLVVHSMLYENFKPVLEKTGVERVFVVGGEVNSLSEVMDSGSEDFENVKVNPEEDVALIPYTGGTTGMPKGVMLTHFNLAANALQLAVATGLSHMDTIVGCMPMFHSAEFGLVNLMVTVGNEYVVMGMFNQEMLAENIEKYKGTFSWAVPPALNVLVNTLESSNKTYDWSYLKVFATGAWPVAPALVEKLLKLAAEKCNNPRLRHNQIWGMTEACPMVTTNPPLRLDKSTTQGVPMSDIELKVISLEDGRELGVGESGEIVIRGPNIFKGYWKREKENQECWWYDEKGRKFFRTGDVGFIDEEGFLHFQDRVKEVIKYKGYTIAPFELEALLMKHEAVMDVAVIGKPDEEAGEVPKAFIVLKPEYRGKVDEEDIIEWVRERISGYKRVREVEFVEELPRTASGKLLRRLLREKEAEGHHHHHH | soluble |
| MGSDKIHHHHHHMFVCEVRFECFADTTISAAQHAINHLLEAWRANGQILGREFAVSFHDGEFKARLMLPAQDSLANRHNSPWAKAALKGLTDAKILPPREKLLGQDINANESATHTPEWQLLYTSYVHMCSPVRSGDNLLPIPLYKLPATFNGDHKQLIRWQTEWQACDELQMASATKAEFAALDELCNVGSDLFRRGWDLRGRIEYLTKIPTYYYLYRVGGSSLQDELARPCPRCGSTGWRLDEPLLDMFHFRCEPCRIVSNLSWDYQ | not soluble |
| MGSDKIHHHHHHMAELNKTKVRKELRTERPSIYSFELDEIKQWLTDNGEKPFRAAQIFEWLYEKRVSSFEDMTNLSKDLREKLNTRFVLTTLKTAVKQTSQDGTMKFLFELHDGYTIETVLMRHEYGNSVCVTTQVGCRIGCTFCASTLGGLKRNLEAGEIVAQVVKVQKALDETDERVSSVVIMGIGEPFDNFNEMLAFLKIINHDKGLNIGARHITVSTSGIIPKIYEFADQQMQINFAISLHAPNTEIRSRLMPINRAYKLPDLMEAVKYYINKTGRRISFEYGLFGGVNDQVEHAEELADLLEGVKCHVNLIPVNYVPERDYVRTPRDQIFAFEKTLKSRGVNVTIRREQGHDIDAACGQLRAKERQDETR | not soluble |
| MSLTNDYRFEFRPYQRRFLRSLTTNHGKWDIREGIILRLTDETLRVGWGEIAPISWFGSETLEQVLDFCRQLPGEITDETIFSIPDELPACQFGFESAWEWGSWKWGNEFFSMPNAQCPMPNAQSFSALLPFGEAALNQWETLWQKGYRTFKWKIGVDAIADELKIFESLTRILPASTKLRLDANGGLSYEEANLWLRTCDNLKANAELPLEIEFIEQPLPVEQFQQMLELSTSYETAIALDESVATLKQLAACHQQGWREIFVIKPGIVGSPSRLRKFCHQHQIDTVFSSVLETAIGRLAALQIAAELSRNNRAIGFGIDHFFEQEETWFQTLWNDLEGHHHHHH | soluble |
| MSLAKNVNASVEETFKKSGIPVKVDKSNGQVTFGEKTMFDVDSDVLKPEAKEMLKMFVPKYIETIYKDYGDYISKIVIEGHTDDVGSYIYNLDLSQRRAYSVAKFIVGDEIGDYKYKDKVTKHIIAIGRSKAELIKNGDNSVNRDASRRVELKYEININQNKEGHHHHHH | soluble |
| MAHHHHHHMAILYNRITGLKDSVYGEGLQCRILGLDEIKVFNIRIRPRVLKTMTGTKDLQMVNISLRVLFRPQTDRLPQIYREFGMDYDERILPSISNEILKAVVAEYKAEELIQKRDVVSARIYQLMQSKVSQFGLVLEDLSLVDIQFGKEFMVAVEQKQVAQQEAERFRYVVLENEQKRRAAVVRAEGEAESARLISEAIQRSGGGLLELRRIEAAVDIASKLIPMRNVTFLPGGSNMLLHMKSHQASEQAH | not soluble |
| AIASDKYIGDSHLEETGEEKQDSQEKEAVTPEKAEEQKLKAKYPNLGQKPGGSDFLMKRLQKGQKYFDSGDYNMAKAKIKNKQLPCAGPDKNLVTGDHIPTPQDLPQRKSSLVTSKLAGHVEDLHHV | soluble |
| MTASHGQAAAIPTVTLNDDNTLPVVGIGVGELSDSEAERSVSAALEAGYRLIDTAAAYGNEAAVGRAIAASGIPRDEIYVTTKLATPDQGFTSSQAAARASLERLGLDYVDLYLIHWPGGDTSKYVDSWGGLMKVKEDGIARSIGVCNFGAEDLETIVSLTYFTPAVNQIELHPLLNQAALREVNAGYNIVTEAYGPLGVGRLLDHPAVTAIAEAHGRTAAQVLLRWSIQLGNVVISRSANPERIASNLDVFGFELTADEMETLNGLDDGTRFRPDPATYTGS | soluble |
| MTSLPPRNRSASLFEGSPFAPSSTTSPPTSSLAKMLKSEPIPCLRCGNVGSPTGSVPMSLHKVSSINRSAGTNPASRGGESSLELEAIAAVHELSFAVQSISVSEMLPRTPDLIFVNVTTLEAQPYCLELTLKGWRITSLRSDCMVGDFTRLELFTKYYDSLYLLMDDISPGYRERFSEKLVQRLKLIEAGEEDQVAPCASLQSPSLSTDSSSKESQYSSTESLPIVTPVSTPAIDPDFKPKFK | not soluble |
| MSRNQIYITQEQFDFFCQTQRPYEGFVEGVGYAFVHRGFVNPHANRPTNPFRQTKGYVLPFKQQLIEVSPDLIANSLKCNKTTDTPQEAPERDSRYLGERFYTKDGRYVYIGTMSGGWVCYDRSGNRILEQLPEIIVYSSKEPGRSIIGTGKD | not soluble |
| MSLKIADIQVRTEHFPLTRPYRIAFRSIEEIDNLIVEIRTADGLLGLGAASPERHVTGETLEACHAALDHDRLGWLMGRDIRTLPRLCRELAERLPAAPAARAALDMALHDLVAQCLGLPLVEILGRAHDSLPTSVTIGIKPVEETLAEAREHLALGFRVLKVKLCGDEEQDFERLRRLHETLAGRAVVRVDPNQSYDRDGLLRLDRLVQELGIEFIEQPFPAGRTDWLRALPKAIRRRIAADESLLGPADAFALAAPPAACGIFNIKLMKCGGLAPARRIATIAETAGIDLMWGCMDESRISIAAALHAALACPATRYLDLDGSFDLARDVAEGGFILEDGRLRVTERPGLGLVYPDEGHHHHHH | soluble |
